Experimental data: patent US6518054B1, “Metallo-endopeptidases” (Rijksuniverstteit Te Groningen, priority 1997, dated 2003)

Experiments:
[1] = First order thermal inactivation of TLP-ste variants at 75° C. in 5 mM or 0.2 mM CaCl2
[2] = Thermal stability (T50) at varying CaCl2 concentrations
Method: Thermal stability was measured, using varying CaCl2concentrations in the standard assay buffer (20 mM Na acetate, pH 5.3, 0.01% Triton X-100, 0.5% isopropanol, 62.5 mM NaCl). T50 is the temperature of incubation at which 50 percent of the initial proteolytic activity is lost during a 30 minutes incubation.

casein [3] = experiment: Specific activity with casein as substrate at 37° C.; assay type: biochemical; conditions: casein 0.8%, pH 7.5, 5 mM CaCl2
Method: (§1) Specific activities for TLP-ste and the 8-fold mutant were determined using casein (0.8%) as a substrate in 50 mM Tris-HCl (pH 7.5), 5 mM CaCl2 at 37° C. […] (pH 7.0), 5 mM CaCl2, 5% or 1% DMSO, 0.5% isopropanol, 0.01% Triton X-100, 50 mM NaCl, with […] of substrate, by measuring the decrease in absorption at 345 nm (Î345=−317 M^−1·cm^−1). Stock solutions of the furylacryloylated dipeptides, (Sigma, St. Louis, […].) were prepared by dissolving 3-(-2-furylacryloyl)-L-glycyl-L-leucine amide (FaGLa) and 3-(-2-furylacryloyl)-L-alanyl-L-phenylalanine amide (FaAFa) in DMSO. The kcat/Km ratios of the enzymes were determined by varying the enzyme concentrations (over a 50 fold range) under pseudo-first order conditions by measuring the initial activity, essentially according to the method described by Feder^30. The Ki for phosphoramidon (N-[a-L-rhamnopyrano-syl-oxyhydroxyphophinyl]-L-leucyl-L-tryptophan) was determined by a 30 minute preincubation of a 100 pM protease solution with varying concentrations of the inhibitor (10^−8 to 10^−3 M), in 50 mM MOPS (pH 7.0), 5 mM CaCl2, 50 mM NaCl, prior to the addition of the furylacryloated substrate. For determination of the Ki FaAFa was used as the substrate. Since the Km of the substrate for the enzyme is higher than the concentration used, IC50 values were taken to be equal to Ki values. The optimum temperature for activity was determined by incubating proteases with casein (0.8%) in 50 mM Tris-HCl (pH 7.5), 5 mM CaCl2, at different temperatures for 30 minutes, after which the amount of released peptides, indicative for activity, was measured^11.

[4] = Effect of denaturing agents on protease activity (FaGLa, 50° C.); assay type: biochemical
Method: Protease activities were determined in 50 mM MOPS (pH 7.0), 5 mM CaCl2, 50 mM NaCl, 0.01% Triton X-100, 0.5% isopropanol, using 100 μM FaGLa (3-(-2-furylacryloyl)-L-glycyl-L-leucine amide) as a substrate at 50° C. Enzymes and denaturing agents were preincubated in the reaction mixture at 50° C. for 15 minutes prior to the addition of the substrate. The reaction was followed by measuring the change in absorbance at 345 nm. […] Activities are expressed as percentage of the activity in the absence of denaturant.

[5] = assay type: physicochemical; conditions: buffer, pH 5.3
Method: Stabilities of TLPs were determined at different temperatures. Shown are the first-order inactivation curves for TLP-ste incubated at 80° C. (Δ) and 90° C. (+), thermolysin at 90° C. (Δ), and the 8-fold mutant at 100° C. (●), respectively. […] Samples, taken at the various time points, were quickly cooled on ice (15 s) and transferred to 50° C. to prevent cold denaturation. Residual activity was determined using casein (0.8%) as a substrate in 50 mM TrisHCl (pH 7.5), 5 mM CaCl2 as described previously (Eijsink, V. G. H., Veltman, O. R., Aukema, W., Vriend, G. & Venema, G. Nature Struct. Biol. 2, 374-379 (1995)).

[6] = test system: α-amylase from Bacillus licheniformis; experiment: Hydrolysis of protease resistant α-amylase (SDS-PAGE); assay type: biochemical; conditions: 60 minutes
Method: As an example of the enzymatic activity of the 8-fold mutant we tested the hydrolysis of protease resistant α-amylase from Bacillus licheniformis by the 8-fold mutant. B. licheniformis α-amylase (1 mg/ml) in 50 mM MOPS, pH 7.0, 5 mM CaCl2, 0.01% Triton X-100 was incubated with purified TLP-ste (1 μg/ml), the 8-fold mutant or without protease for 60 minutes at the temperature indicated. The reaction volume was 500 μL. […] Precipitates (only observed in the 100° C. samples) were collected by centrifugation and redissolved in 500 μL 6 M Urea. Both supernatants and redissolved precipitates were subjected to standard SDS-PAGE, including pre-treatment with sample loading buffer (5 minutes at 100° C.). The samples were identical in size (20 μL supernatant and 20 μL dissolved precipitate). Gels were stained with Coomassie-brilliant blue.

casein [7] = experiment: Optimum temperature for activity with casein; assay type: biochemical; conditions: casein 0.8%, 30 minutes
Method: as §1

[8] = 0.2 mM CaCl2, 30 minutes incubation
[9] = 0.5 mM CaCl2, 30 minutes incubation
[10] = 2.5 mM CaCl2, 30 minutes incubation
[11] = 5.0 mM CaCl2, 30 minutes incubation
[12] = 7.5 mM CaCl2, 30 minutes incubation
[13] = 12.5 mM CaCl2, 30 minutes incubation

B1: D57S: TLP-ste variant with Asp57 of the Ca3 site replaced by Ser (protein, listed as Bacillus sp.)
chain: VAGASTVGVGRGVLGDQKYINTTYSGYYYLQDNTRGSGIFTYDGRNRTVLPGSLWTSGDNQFTASYDAAAVDAHYYAGVVYDYYKNVHGRLSYDGSNAAIRSTVHYGRGYNNAFWNGSQMVYGDGDGQTFLPFSGGIDVVGHELTHAVTDYTAGLVYQNESGAINEAMSDIFGTLVEFYANRNPDWEIGEDIYTPGVAGDALRSMSDPAKYGDPDHYSKRYTGTQDNGGVHTNSGIINKAAYLLSQGGVHYGVSVNGIGRDKMGKIFYRALVYYLTPTSNFSQLRAACVQAAADLYGSTSQEVNSVKQAFNAVGVY
Q: For B1, which “Half-life ratio 5 mM/0.2 mM” value [1] is on record?
A: 1.5

Q: And the “dependence of stability on the calcium concentration” value [2]?
A: reduced this calcium dependence

Q: And the T50 [2, 8]?
A: 65.9 °C

Q: And the T50 [2, 9]?
A: 67.3 °C

Q: What about the T50 [2, 10] of the same molecule?
A: 67.5 °C

Q: What about the T50 [2, 11] of the same molecule?
A: 68.2 °C

Q: What about the T50 [2, 12] of the same molecule?
A: 68.8 °C

Q: And the T50 [2, 13]?
A: 69.4 °C

Q: What about the “stability effect of the mutation on the wild-type enzyme” value ([2]; lowest calcium concentration tested) of the same molecule?
A: slightly stabilised

B2: T63F-A69P: TLP-ste variant with the combined stabilising T63F-A69P mutation (protein, listed as Bacillus sp.)
chain: VAGASTVGVGRGVLGDQKYINTTYSGYYYLQDNTRGSGIFTYDGRNRTVLPGSLWTDGDNQFFASYDAPAVDAHYYAGVVYDYYKNVHGRLSYDGSNAAIRSTVHYGRGYNNAFWNGSQMVYGDGDGQTFLPFSGGIDVVGHELTHAVTDYTAGLVYQNESGAINEAMSDIFGTLVEFYANRNPDWEIGEDIYTPGVAGDALRSMSDPAKYGDPDHYSKRYTGTQDNGGVHTNSGIINKAAYLLSQGGVHYGVSVNGIGRDKMGKIFYRALVYYLTPTSNFSQLRAACVQAAADLYGSTSQEVNSVKQAFNAVGVY
Q: Which “Half-life ratio 5 mM/0.2 mM” value [1] does the source give for B2 here?
A: 19

Q: What about the “dependence of stability on the calcium concentration” value [2] of the same molecule?
A: depended strongly on the calcium concentration

Q: And the T50 [2, 8]?
A: 77.8 °C

Q: And the T50 [2, 9]?
A: 80.9 °C

Q: And the T50 [2, 10]?
A: 86.6 °C

Q: And the T50 [2, 11]?
A: 87.2 °C

Q: What about the T50 [2, 12] of the same molecule?
A: 89.7 °C

Q: What about the T50 [2, 13] of the same molecule?
A: 90.2 °C

B3: D57S-T63F-A69P: TLP-ste variant combining D57S with T63F-A69P (protein, listed as Bacillus sp.)
chain: VAGASTVGVGRGVLGDQKYINTTYSGYYYLQDNTRGSGIFTYDGRNRTVLPGSLWTSGDNQFFASYDAPAVDAHYYAGVVYDYYKNVHGRLSYDGSNAAIRSTVHYGRGYNNAFWNGSQMVYGDGDGQTFLPFSGGIDVVGHELTHAVTDYTAGLVYQNESGAINEAMSDIFGTLVEFYANRNPDWEIGEDIYTPGVAGDALRSMSDPAKYGDPDHYSKRYTGTQDNGGVHTNSGIINKAAYLLSQGGVHYGVSVNGIGRDKMGKIFYRALVYYLTPTSNFSQLRAACVQAAADLYGSTSQEVNSVKQAFNAVGVY
Q: Which “Half-life ratio 5 mM/0.2 mM” value [1] does the source give for B3 here?
A: 1.5

Q: And the “dependence of stability on the calcium concentration” value [2]?
A: largely independent of the calcium concentration

Q: And the T50 [2, 8]?
A: 74.6 °C

Q: And the T50 [2, 9]?
A: 75.4 °C

Q: What about the T50 [2, 10] of the same molecule?
A: 76.2 °C

Q: And the T50 [2, 11]?
A: 76.5 °C

Q: And the T50 [2, 12]?
A: 76.7 °C

Q: And the T50 [2, 13]?
A: 77.2 °C

Q: And the “stability compared with the wild-type enzyme” value ([2]; at lower calcium concentrations)?
A: considerably more stable than the wild-type enzyme

B4: TLP-ste: broad-specificity metalloprotease (thermolysin-like protease) produced by Bacillus stearothermophilus CU21, SEQUENCE ID No. 1 (protein)
chain: VAGASTVGVGRGVLGDQKYINTTYSSYYGYYYLQDNTRGSGIFTYDGRNRTVLPGSLWTDGDNQFTASYDAAAVDAHYYAGVVYDYYKNVHGRLSYDGSNAAIRSTVHYGRGYNNAFWNGSQMVYGDGDGQTFLPFSGGIDVVGHELTHAVTDYTAGLVYQNESGAINEAMSDIFGTLVEFYANRNPDWEIGEDIYTPGVAGDALRSMSDPAKYGDPDHYSKRYTGTQDNGGVHTNSGIINKAAYLLSQGGVHYGVSVNGIGRDKMGKIFYRALVYYLTPTSNFSQLRAACVQAAADLYGSTSQEVNSVKQAFNAVGVY
Q: What does the source list for B4?
A: Specific activity casein (casein [3]): 3.5 ± 0.7 (U/mg) × 10^−3; Half-life ratio 5 mM/0.2 mM [1]: 12; relative activity ([4]; GndHCl 0 M): 100%; relative activity ([4]; GndHCl 1.0 M): 99%; relative activity ([4]; GndHCl 2.0 M): 62%; relative activity ([4]; GndHCl 3.0 M): 0%; relative activity ([4]; GndHCl 4.0 M): 0%; relative activity ([4]; GndHCl 5.0 M): 0%; relative activity ([4]; GndHCl 5.5 M): 0%; relative activity ([4]; GndHCl 6.0 M): 0%; relative activity ([4]; SDS 0 % w/v): 100%; relative activity ([4]; SDS 0.25 % w/v): 72%; relative activity ([4]; SDS 0.5 % w/v): 37%; relative activity ([4]; SDS 0.75 % w/v): 9.6%; relative activity ([4]; SDS 1.0 % w/v): 0%; relative activity ([4]; SDS 1.25 % w/v): 0%; relative activity ([4]; SDS 1.5 % w/v): 0%; relative activity ([4]; SDS 2.0 % w/v): 0%; relative activity ([4]; Urea 0 M): 100%; relative activity ([4]; Urea 0.5 M): 96%; relative activity ([4]; Urea 1.0 M): 87%; relative activity ([4]; Urea 2.0 M): 75%; relative activity ([4]; Urea 3.0 M): 3%; relative activity ([4]; Urea 4.0 M): 0%; relative activity ([4]; Urea 5.0 M): 0%; relative activity ([4]; Urea 7.5 M): 0%; half-life 80° C. [5]: 17.5 min; half-life 90° C. [5]: <2 min; half-life 100° C. [5]: <0.5 min; degradation of B. licheniformis α-amylase ([6]; 80° C. and lower): No significant degradation; hydrolysis of B. licheniformis α-amylase ([6]; 100° C.): no hydrolysis had occurred; T50 [2, 8]: 65.5 °C; T50 [2, 9]: 67.5 °C; T50 [2, 10]: 72.9 °C; T50 [2, 11]: 75.2 °C; T50 [2, 12]: 77.0 °C; T50 [2, 13]: 77.9 °C; Topt (optimum temperature for activity) (casein [7]): 74 °C

B5: TLN: thermolysin, protease secreted by Bacillus thermoproteolyticus, SEQUENCE ID No. 2 (protein, UniProt P00800 233-548, looked up)
Thermolysin: ITGTSTVGVGRGVLGDQKNINTTYSTYYYLQDNTRGNGIFTYDAKYRTTLPGSLWADADNQFFASYDAPAVDAHYYAGVTYDYYKNVHNRLSYDGNNAAIRSSVHYSQGYNNAFWNGSQMVYGDGDGQTFIPLSGGIDVVAHELTHAVTDYTAGLIYQNESGAINEAISDIFGTLVEFYANKNPDWEIGEDVYTPGISGDSLRSMSDPAKYGDPDHYSKRYTGTQDNGGVHINSGIINKAAYLISQGGTHYGVSVVGIGRDKLGKIFYRALTQYLTPTSNFSQLRAAAVQSATDLYGSTSQEVASVKQAFDAVGVK
Q: Which “half-life 80° C.” value [5] does the source give for B5 here?
A: >200 min

Q: What about the “half-life 90° C.” value [5] of the same molecule?
A: 12.5 min

Q: What about the “half-life 100° C.” value [5] of the same molecule?
A: <2 min

Q: And the “Topt (optimum temperature for activity)” value (casein [7])?
A: 77 °C
